Results on two molecules are retold here after patent US7390625B2, “Apoptosis-associated protein and use thereof” (Takeda Pharmaceutical Company Limited, priority 2002, dated 2008).

Test [1] deals with T1, ASK1 (Homo sapiens, UniProt Q99683).
T1 construct: Myc; expressed in transfected cells; host or cells: HEK293
T1 sequence (Q99683 1-1374): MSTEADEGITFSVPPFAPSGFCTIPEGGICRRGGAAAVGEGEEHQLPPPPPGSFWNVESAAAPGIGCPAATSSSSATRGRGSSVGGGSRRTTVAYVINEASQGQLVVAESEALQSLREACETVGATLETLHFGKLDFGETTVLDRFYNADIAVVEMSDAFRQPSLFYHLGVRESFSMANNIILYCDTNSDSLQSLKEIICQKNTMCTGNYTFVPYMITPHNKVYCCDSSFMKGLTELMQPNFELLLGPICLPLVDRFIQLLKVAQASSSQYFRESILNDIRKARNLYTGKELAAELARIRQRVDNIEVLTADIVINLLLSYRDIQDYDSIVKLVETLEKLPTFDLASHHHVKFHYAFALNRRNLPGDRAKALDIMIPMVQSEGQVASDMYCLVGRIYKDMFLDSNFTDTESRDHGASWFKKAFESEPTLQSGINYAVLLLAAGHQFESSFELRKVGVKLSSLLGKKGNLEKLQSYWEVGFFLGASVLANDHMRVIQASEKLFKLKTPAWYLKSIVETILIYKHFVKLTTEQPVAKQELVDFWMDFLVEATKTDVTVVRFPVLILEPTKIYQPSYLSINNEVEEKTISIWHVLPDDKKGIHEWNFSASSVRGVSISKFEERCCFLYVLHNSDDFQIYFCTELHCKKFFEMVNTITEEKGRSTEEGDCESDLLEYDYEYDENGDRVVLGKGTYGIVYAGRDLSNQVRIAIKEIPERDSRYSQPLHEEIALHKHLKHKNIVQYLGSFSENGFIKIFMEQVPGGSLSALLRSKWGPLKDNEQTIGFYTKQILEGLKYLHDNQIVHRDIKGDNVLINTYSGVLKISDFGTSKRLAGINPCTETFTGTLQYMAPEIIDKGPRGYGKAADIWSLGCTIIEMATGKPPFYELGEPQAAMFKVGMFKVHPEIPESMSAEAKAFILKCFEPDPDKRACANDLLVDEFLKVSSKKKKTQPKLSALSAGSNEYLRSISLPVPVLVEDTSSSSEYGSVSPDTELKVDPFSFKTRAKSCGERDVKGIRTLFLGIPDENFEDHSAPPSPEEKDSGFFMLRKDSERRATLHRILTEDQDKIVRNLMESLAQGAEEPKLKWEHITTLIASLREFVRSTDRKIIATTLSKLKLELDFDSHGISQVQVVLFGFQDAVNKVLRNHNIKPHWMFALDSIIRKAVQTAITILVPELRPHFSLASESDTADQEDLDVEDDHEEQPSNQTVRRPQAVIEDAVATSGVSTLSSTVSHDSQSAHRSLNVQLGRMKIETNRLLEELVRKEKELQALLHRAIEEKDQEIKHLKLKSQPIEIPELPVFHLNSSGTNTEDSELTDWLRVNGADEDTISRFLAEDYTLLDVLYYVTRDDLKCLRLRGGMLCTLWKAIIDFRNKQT
Description: Co-immunoprecipitation of ABP1 and ASK1 co-expressed in HEK293 cells. Format: binding. The procedure: FIGS. 4A-B show the results of binding experiments of ABP1 and ASK1. FIG. 4A: HEK293 cells were transfected with Flag-ABP1 and the Myc-ASK1 plasmid, the cells were recovered after 24 hours, immunoprecipitation with an anti-Flag antibody was conducted, and immunoblot analysis was conducted using an anti-Myc antibody. FIG. 4B: HEK293 cells were transfected with Flag-ASK1 and the CFP-ABP1 plasmid, the cells were recovered after 24 hours, immunoprecipitation with an anti-Flag antibody was conducted, and immunoblot analysis was conducted using an anti-GFP antibody. Note that CFP is a variant of GFP and can be recognized by an anti-GFP antibody. For both FIGS. 4A and B, the two right lanes show the results obtained with H2O2 treatment (0.5 mM, 1 hour). […] IP stands for immunoprecipitation, and IB stands for immunoblot.
Two fusion proteins, i.e., Flag-ABP1 and Myc-ASK1, were co-expressed in HEK293 cells. […] The antibodies used were anti-Flag antibody (described above) and anti-Myc antibody (Clone 9E10, Calbiochem). This binding was enhanced by treatment with H2O2, which is ASK1 activation factor. […] The antibodies used were anti-Flag antibody (described above) and anti-GFP antibody (Medical & Biological Laboratories CO.).

The next test relates to HeLa cells. The experiment in a line: Cell death assay in HeLa cells transiently expressing CFP fusion proteins. Format: cell-based. The procedure:
FIGS. 6A-B show the induction of cell death by ABP1 in HeLa cells. FIG. 6A: Fluorescence photomicrographs at 36 hours after HeLa cells were transfected with CFP or the CFP-ABP1 plasmid (upper panel) and differential interference photomicrographs for the same fields (lower panel) are shown. FIG. 6B: The ratio (%) of cell death at 36 hours after transfection is shown.
FIGS. 10A-B show the induction of cell death by an ABP1-deficient variant. FIG. 10A: A schematic diagram of the ABP1-deficient variant is shown. […] FIG. 10B: The ratio (%) of cell death at 36 hours after transfection in cells introduced with the ABP1-deficient variant is shown.
• (1) To examine the intracellular localization and function of ABP1, HeLa cells were transfected with the CFP-ABP1 plasmid [prepared by subcloning ABP1 cDNA prepared by PCR into pECFP-C1 (Clontech)], which was also used in the immunoprecipitation experiment, and which expresses a fusion protein of ABP1 with CFP at the N-terminal-[transfection conducted using FuGENE6 (Roche Diagnostics K.K) as directed in the instruction manual thereof] to allow the transient expression of the protein, and CFP fluorescence was examined over time using a fluorescence microscope. […] This calculation was made for CFP-positive cells.
As described above, ABP1 has none of the functional domains of existing apoptosis-related factors. […]

The subject of test [2] is PAE-ABP1 cells. Description: Cell death assay in PAE-ABP1 cells after removal of tetracycline. The format is cell-based, porcine. The note with it: 48 hours after removal of tetracycline (Myc-ABP1 expressed). The procedure: FIGS. 7A-B show the induction of cell death by ABP1 in PAE-ABP1 cells. FIG. 7A: Phase contrast photomicrographs at 36 hours after cultivation of PAE-ABP1 cells in the presence (+) and absence (−) of tetracycline (Tet) are shown. FIG. 7B: The ratio (%) of cell death from cultivation in the presence of tetracycline (O hour) and at 24 hours and 48 hours after removal of tetracycline.
FIGS. 9A-B show the caspase dependency of cell death by ABP1. FIG. 9A: PAE-ABP1 cells were cultivated in the absence of tetracycline, and caspase-3 activity was measured after 0, 12, 24, and 36 hours. The results are shown as relative values with the value in the presence of tetracycline taken as 1. FIG. 9B: PAE-ABP1 cells were treated with zVAD-fmk (50 μM) simultaneously with removal of tetracycline, and the ratio (%) of dead cells was quantified. Cell death assay was conducted at 18 hours after removal of tetracycline. […]
When these cells were cultured in the absence of tetracycline, cell death was induced with the expression of the ABP1 protein, as in the transient expression of the ABP1 protein in HeLa cells (FIG. 7A). The ratio of dead cells to all cells (the ratio of cells showing a morphological sign of cell death to all cells was determined under a microscope; the results were shown as the mean for three visual fields) was determined to be about 55% at 48 hours after removal of tetracycline (FIG. 7B).

The subject of test [3] is PAE-ABP1 cells. Description: DNA fragmentation (agarose gel electrophoresis) in PAE-ABP1 cells. The format is cell-based, porcine. The conditions noted are these: after removal of tetracycline. The procedure: PAE-ABP1 cells were examined for DNA fragmentation at each time after removal of tetracycline by agarose gel electrophoresis (upper panel). At both ends are molecular weight markers (M), with their sizes shown at the right end.
PAE-ABPl cells (2×10^6 cells) were lysed in 200 μl of lysis buffer [20 mM Tris-HCl (pH 7.5), 10 mM EDTA, 0.5% Triton X-100]. the lysate was centrifuged, and the supematant was recovered and treated with 0.2 mg/mi proteinase K at 420° C for 1 hour. Subsequently, DNA was purified by the phenol-chloroform extraction method and the ethanol precipitation method, this was lysed again in a TE buffer containing 0.2 mg/ml ribonuclease A (10mM Tris-HCl, 1mM EDTA), the lysate was electrophoresed on 2% agarose gel, stained with ethidium bromide, and the migration pattern was photographed.

The next test has as its system caspase-3. Description: Caspase-3 activity (DEVD-AFC fluorometric assay) in PAE-ABP1 cells. Format: cell-based, porcine. The conditions noted are these: absence of tetracycline, around the time of cell death. As to the method:
FIGS. 9A-B show the caspase dependency of cell death by ABP1. FIG. 9A: PAE-ABP1 cells were cultivated in the absence of tetracycline, and caspase-3 activity was measured after 0, 12, 24, and 36 hours. The results are shown as relative values with the value in the presence of tetracycline taken as 1. FIG. 9B: PAE-ABP1 cells were treated with zVAD-fmk (50 μM) simultaneously with removal of tetracycline, and the ratio (%) of dead cells was quantified. Cell death assay was conducted at 18 hours after removal of tetracycline. Tet stands for tetracycline.
The same was also confirmed in TUNEL staining of PAE-ABP1 cells. • (4) DNA fragmentation during apoptosis normally occurs subsequent to caspase activation. […] The measurement was conducted using a CPP32/caspase-3 fluorometric protease assay kit (MBL) with the synthetic fluorescence peptide DEVD-7-amino-4-trifluoromethyl coumarin (AFC) as a substrate. The fluorescence intensity from the liberated AFC was measured at an excitation wavelength of 360 nm and a fluorescence wavelength of 530 nm using a fluorescence spectrophotometer. Each sample was assayed twice. The results are shown as relative values with the value in the presence of tetracycline taken as 1.

Another test concerns JNK. The experiment in a line: Immunoblot with anti-phosphorylated JNK antibody in PAE-ABP1 cells. The format is cell-based, porcine. The conditions noted are these: 12 hours after tetracycline removal. From the text:
(§1) FIGS. 11A-B show the activation of ASK1, JNK, and p38 by ABP1. FIG. 11A: PAE-ABP1 cells were cultivated in the absence of tetracycline, the activation of endogenous JNK and p38 was examined by immunoblot analysis using each anti-phosphorylated protein antibody. FIG. 11B: PAE-ABP1 cells were cultivated in the absence of tetracycline, the activation of endogenous ASK1 was examined by immunoblot analysis using an anti-phosphorylated protein antibody. IB stands for immunoblot.
(§2) The activation of JNK and p38 during induction of the expression of ABP1 was investigated using respective anti-phosphorylated protein antibodies using PAE-ABP1 cells. The antibodies used were an anti-phosphorylated JNK antibody (Cell Signaling), an anti-phosphorylated p38 antibody (Cell Signaling), and an anti-phosphorylated ASK1 antibody (Tobiume et al., EMBO Rep., 2, 222-228, 2001). The cells were lysed using a lysis buffer (described above) in the same manner as Example 4, the lysate was centrifuged, the supernatant was recovered and reacted with an anti-Myc antibody (Clone 9E10, Calbiochem), Protein A-sepharose 4B (Zymed Laboratories) was added, incubation was conducted for 30 minutes, the reaction mixture was washed with the lysis buffer three times, an SDS sample buffer (described above) was added, and the same procedure as the immunoblotting method was followed.

A further test deals with p38. The experiment in a line: Immunoblot with anti-phosphorylated p38 antibody in PAE-ABP1 cells. The conditions noted are these: 12 hours after tetracycline removal. Format: cell-based, porcine.
From the text: as §1, §2

Test [4] has as its system ASK1. Description: Immunoblot with anti-phosphorylated ASK1 antibody in PAE-ABP1 cells. Format: cell-based, porcine. The conditions noted are these: 12 hours after tetracycline removal.
From the text: as §1, §2

B1: CFP-ABP1: fusion protein of ABP1 with CFP at the N-terminal (protein)
chain: MRPLDIVELAEPEEVEVLEPEEDFEQFLLPVINEMREDIASLTREHGRAYLRNRSKLWEMDNMLIQIKTQVEASEESALNHLQNPGDAAEGRAAKRCEKAEEKAKEIAKMAEMLVELVRRIEKSESS
modifications: left off: large carriers
notes: fusion protein of ABP1 with CFP at the N-terminal
Regarding B1, in the test with ASK1 [1] (H2O2 treatment (0.5 mM, 1 hour)), the “effect of H2O2 treatment on binding of ABP1 and ASK1” value is on record as “also enhanced”. In addition, the “binding of ABP1 and ASK1 (co-immunoprecipitation)” value with ASK1 [1] (immunoprecipitation with anti-Flag antibody, immunoblot) was “binding of the two proteins was confirmed”. Also, in the test on HeLa cells (36 hours after transfection), the “ratio of cell death among cells expressing the fusion protein” value was “about 70%”. Also, the “time after transfection at which signs of cell death began” value with HeLa cells (detachment from the culture plate, membrane blebbing) is given as “around 24 hours”.

B2: ABP1: ASK1-binding protein of 127 amino acids encoded by gene PGR1 (SEQ ID NO:2); Myc-tagged in PAE-ABP1 cells (protein, listed as Homo sapiens)
chain: B1 chain
modifications: Myc tag
notes: Myc-tagged in PAE-ABP1 cells
With B2, the “ratio of dead cells to all cells” value in the test with PAE-ABP1 cells [2] is recorded as “about 55%”. For the same molecule, the DNA fragmentation entry in the test with PAE-ABP1 cells [3] is reported as “formed a DNA ladder”. In the test on caspase-3, the caspase-3 activity result is “decreased”. In addition, the “activation of endogenous JNK” value with JNK is reported as “observed”. The “activation of endogenous p38” value in the test with p38 is “observed”. In addition, the “activation of endogenous ASK1” value with ASK1 [4] is given as “activation of ASK1 was observed”.
